From US20200354462A1

Target: human GnRH receptor expressed on the surface of OC-3-VGH cancer cells (human) (UniProt P30968)
Experiment: cell-based or functional assay

Chain of UniProt P30968 (P30968 whole entry): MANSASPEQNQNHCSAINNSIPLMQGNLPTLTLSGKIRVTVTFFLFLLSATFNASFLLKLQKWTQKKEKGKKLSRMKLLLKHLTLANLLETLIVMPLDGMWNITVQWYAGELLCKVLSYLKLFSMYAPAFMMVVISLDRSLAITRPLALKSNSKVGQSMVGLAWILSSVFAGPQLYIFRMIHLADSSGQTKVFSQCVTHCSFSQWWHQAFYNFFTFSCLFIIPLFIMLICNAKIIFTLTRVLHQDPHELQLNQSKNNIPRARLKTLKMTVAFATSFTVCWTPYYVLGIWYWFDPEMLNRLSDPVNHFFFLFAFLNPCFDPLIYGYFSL

Q: How did the GnRH gene expression in cancer cells turn out when antide (peptide) was run?
A: The GnRH gene expression in cancer cells was 50%.
